For one substance, conjugation efficiency results are on record in publication PMC10323135.

This assay concerns the target Norovirus-like particle displaying C-terminal SpyTag (norovirus VP1 capsid protein fused with a C-terminal SpyTag) (norovirus strain Hu/GII.4/Sydney/NSW0514/2012/AU). The experiment in a line: SDS-PAGE mobility shift of the covalent SpyTag/SpyCatcher conjugate.

In the case of “SpyCatcher-M2e (SpyCatcher fused with the ectodomain of influenza matrix-2 protein) (designed binder)”, the conjugation efficiency was 24%.
